Article PMC6497721, “DNA methylation repels targeting of Arabidopsis REF6”

T1: REF6 ZnF1-4 (Arabidopsis thaliana, UniProt Q9STM3 1239-1360)
T1 sequence: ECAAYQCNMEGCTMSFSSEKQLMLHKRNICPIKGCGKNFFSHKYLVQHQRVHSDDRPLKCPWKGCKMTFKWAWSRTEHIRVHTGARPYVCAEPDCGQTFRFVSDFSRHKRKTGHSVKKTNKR

T2: GST-REF6C (ZnF1-4) (Arabidopsis thaliana, UniProt Q9STM3 1239-1360)
T2 sequence: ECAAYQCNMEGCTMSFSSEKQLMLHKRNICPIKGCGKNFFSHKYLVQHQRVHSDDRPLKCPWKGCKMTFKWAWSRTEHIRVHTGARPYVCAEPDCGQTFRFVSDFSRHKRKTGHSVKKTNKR


Key:
REF6 ZnF1-4 = target: T1, REF6 ZnF1-4; assay: ITC; 20 uM ZnCl2; ITC: 20 mM Tris-HCl pH 7.5, 150 mM NaCl, 20 uM ZnCl2, 25 C; EMSA: 25 mM Tris-HCl pH 8.0, 100 mM NaCl, 2.5 mM MgCl2, 0.1% CA-630, 10% glycerol, 1 uM ZnSO4, 1 mM; details: protein: recombinant; tags: GST removed by PreScission; blunt
GST-REF6C (ZnF1-4) = target: T2, GST-REF6C (ZnF1-4); assay: EMSA; 1 uM ZnSO4; ITC: 20 mM Tris-HCl pH 7.5, 150 mM NaCl, 20 uM ZnCl2, 25 C; EMSA: 25 mM Tris-HCl pH 8.0, 100 mM NaCl, 2.5 mM MgCl2, 0.1% CA-630, 10% glycerol, 1 uM ZnSO4, 1 mM; details: protein: recombinant; tags: N-terminal GST (pGEX-6P-1); label: 5'-32P; blunt

Binder	Kd (REF6 ZnF1-4) [nM]	binding result (GST-REF6C (ZnF1-4))
NAC004P_5mC1 (dsDNA, 5mC at top strand position 3) DNA 1: TTCTCTGTTTTG DNA 2: CAAAACAGAGAA	65.7 ± 4.9	–
NAC004P_5mC3 (dsDNA, 5mC at top strand position 5) DNA 1: TTCTCTGTTTTG DNA 2: CAAAACAGAGAA	110 ± 3.8	–
NAC004P 12-mer (dsDNA) DNA 1: TTCTCTGTTTTG DNA 2: CAAAACAGAGAA	73.5 ± 7	–
NAC004 50-bp probe (dsDNA) DNA 1: GGGAGAATCTCAAACTTTCTCTGTTTTGTCTTTAGAAACTTTGAAATATC DNA 2: GATATTTCAAAGTTTCTAAAGACAAAACAGAGAAAGTTTGAGATTCTCCC	–	binds
